First the molecules themselves.
B1: CE115HA000 A99F one-arm antibody (antibody, human IgG1, kappa, L234A L235A, N297A, name in Kabat numbering)
heavy: QVQLVESGGGVVQPGRSLRLSCAASGFTFSNAWMHWVRQAPGKGLEWVAQIKAKSNNYATYYAESVKGRFTISRDDSKNSLYLQMNSLKTEDTAVYYCRYVHYGFYYGVDAWGQGTTVTVSSASTKGPSVFPLAPSSKSTSGGTAALGCLVKDYFPEPVTVSWNSGALTSGVHTFPAVLQSSGLYSLSSVVTVPSSSLGTQTYICNVNHKPSNTKVDKKVEPKSCDKTHTCPPCPAPEAAGGPSVFLFPPKPKDTLMISRTPEVTCVVVDVSHEDPEVKFNWYVDGVEVHNAKTKPREEQYASTYRVVSVLTVLHQDWLNGKEYKCKVSNKALPAPIEKTISKAKGQPREPQVYTLPPSRCELTKNQVSLSCAVKGFYPSDIAVEWESNGQPENNYKTTPPVLDSDGSFFLVSKLTVDKSRWQQGNVFSCSVMHEALHNHYTQKSLSLSPDYKDDDDK
chain: EPKSSDKTHTCPPCPAPELLGGPSVFLFPPKPKDTLMISRTPEVTCVVVDVSHEDPEVKFNWYVDGVEVHNAKTKPREEQYNSTYRVVSVLTVLHQDWLNGKEYKCKVSNKALPAPIEKTISKAKGQPREPQVCTLPPSRDELTKNQVSLWCLVKGFYPSDIAVEWESNGQPENNYKTTPPVLDSDGSFFLYSKLTVDKSRWQQGNVFSCSVMHEALHNRYTQKSLSLSP
light: DIVMTQSPLSLPVTPGEPASISCRSSQSLVHSNRNTYLHWYQQKPGQAPRLLIYKVSNRFSGVPDRFSGSGSGTDFTLKISRVEAEDVGVYYCGQGTQVPYTFGQGTKLEIKRTVAAPSVFIFPPSDEQLKSGTASVVCLLNNFYPREAKVQWKVDNALQSGNSQESVTEQDSKDSTYSLSSTLTLSKADYEKHKVYACEVTHQGLSSPVTKSFNRGEC
notes: one-arm antibody (one Fab)
B2: CE115HA000 D101R one-arm antibody (antibody, human IgG1, kappa, L234A L235A, N297A, name in Kabat numbering)
heavy: B1 heavy with F105A, D110R
chain: B1 chain
light: B1 light
notes: one-arm antibody (one Fab)
B3: CE115HA000 A102Y one-arm antibody (antibody, human IgG1, kappa, L234A L235A, N297A, name in Kabat numbering)
heavy: B1 heavy with F105A, A111Y
chain: B1 chain
light: B1 light
notes: one-arm antibody (one Fab)
B4: CE115HA000 A99T one-arm antibody (antibody, human IgG1, kappa, L234A L235A, N297A, name in Kabat numbering)
heavy: B1 heavy with F105T
chain: B1 chain
light: B1 light
notes: one-arm antibody (one Fab)
B5: CE115HA000 D101F one-arm antibody (antibody, human IgG1, kappa, L234A L235A, N297A, name in Kabat numbering)
heavy: B1 heavy with F105A, D110F
chain: B1 chain
light: B1 light
notes: one-arm antibody (one Fab)
B6: CE115HA000 A99Y one-arm antibody (antibody, human IgG1, kappa, L234A L235A, N297A, name in Kabat numbering)
heavy: B1 heavy with F105Y
chain: B1 chain
light: B1 light
notes: one-arm antibody (one Fab)
B7: CE115HA000 D101H one-arm antibody (antibody, human IgG1, kappa, L234A L235A, N297A, name in Kabat numbering)
heavy: B1 heavy with F105A, D110H
chain: B1 chain
light: B1 light
notes: one-arm antibody (one Fab)
B8: CE115HA000 D101N one-arm antibody (antibody, human IgG1, kappa, L234A L235A, N297A, name in Kabat numbering)
heavy: B1 heavy with F105A, D110N
chain: B1 chain
light: B1 light
notes: one-arm antibody (one Fab)
B9: CE115HA000 A102I one-arm antibody (antibody, human IgG1, kappa, L234A L235A, N297A, name in Kabat numbering)
heavy: B1 heavy with F105A, A111I
chain: B1 chain
light: B1 light
notes: one-arm antibody (one Fab)
B10: CE115HA000 D101Q one-arm antibody (antibody, human IgG1, kappa, L234A L235A, N297A, name in Kabat numbering)
heavy: B1 heavy with F105A, D110Q
chain: B1 chain
light: B1 light
notes: one-arm antibody (one Fab)
B11: CE115HA000 D73N one-arm antibody (antibody, human IgG1, kappa, L234A L235A, N297A, name in Kabat numbering)
heavy: B1 heavy with D76N, F105A
chain: B1 chain
light: B1 light
notes: one-arm antibody (one Fab)
B12: CE115HA000 D101L one-arm antibody (antibody, human IgG1, kappa, L234A L235A, N297A, name in Kabat numbering)
heavy: B1 heavy with F105A, D110L
chain: B1 chain
light: B1 light
notes: one-arm antibody (one Fab)
B13: CE115HA000 A99K one-arm antibody (antibody, human IgG1, kappa, L234A L235A, N297A, name in Kabat numbering)
heavy: B1 heavy with F105K
chain: B1 chain
light: B1 light
notes: one-arm antibody (one Fab)
B14: CE115HA000 A102V one-arm antibody (antibody, human IgG1, kappa, L234A L235A, N297A, name in Kabat numbering)
heavy: B1 heavy with F105A, A111V
chain: B1 chain
light: B1 light
notes: one-arm antibody (one Fab)
B15: CE115HA000 A102P one-arm antibody (antibody, human IgG1, kappa, L234A L235A, N297A, name in Kabat numbering)
heavy: B1 heavy with F105A, A111P
chain: B1 chain
light: B1 light
notes: one-arm antibody (one Fab)
B16: CE115HA000 A99Q one-arm antibody (antibody, human IgG1, kappa, L234A L235A, N297A, name in Kabat numbering)
heavy: B1 heavy with F105Q
chain: B1 chain
light: B1 light
notes: one-arm antibody (one Fab)
B17: CE115HA000 D101M one-arm antibody (antibody, human IgG1, kappa, L234A L235A, N297A, name in Kabat numbering)
heavy: B1 heavy with F105A, D110M
chain: B1 chain
light: B1 light
notes: one-arm antibody (one Fab)
B18: CE115HA000 D72V one-arm antibody (antibody, human IgG1, kappa, L234A L235A, N297A, name in Kabat numbering)
heavy: B1 heavy with D75V, F105A
chain: B1 chain
light: B1 light
notes: one-arm antibody (one Fab)
B19: CE115HA000 A99S one-arm antibody (antibody, human IgG1, kappa, L234A L235A, N297A, name in Kabat numbering)
heavy: B1 heavy with F105S
chain: B1 chain
light: B1 light
notes: one-arm antibody (one Fab)
B20: CE115HA000 D73T one-arm antibody (antibody, human IgG1, kappa, L234A L235A, N297A, name in Kabat numbering)
heavy: B1 heavy with D76T, F105A
chain: B1 chain
light: B1 light
notes: one-arm antibody (one Fab)
B21: CE115HA000 D101S one-arm antibody (antibody, human IgG1, kappa, L234A L235A, N297A, name in Kabat numbering)
heavy: B1 heavy with F105A, D110S
chain: B1 chain
light: B1 light
notes: one-arm antibody (one Fab)
B22: CE115HA000 D101V one-arm antibody (antibody, human IgG1, kappa, L234A L235A, N297A, name in Kabat numbering)
heavy: B1 heavy with F105A, D110V
chain: B1 chain
light: B1 light
notes: one-arm antibody (one Fab)
B23: CE115HA000 D101K one-arm antibody (antibody, human IgG1, kappa, L234A L235A, N297A, name in Kabat numbering)
heavy: B1 heavy with F105A, D110K
chain: B1 chain
light: B1 light
notes: one-arm antibody (one Fab)
B24: CE115HA000 D101Y one-arm antibody (antibody, human IgG1, kappa, L234A L235A, N297A, name in Kabat numbering)
heavy: B1 heavy with F105A, D110Y
chain: B1 chain
light: B1 light
notes: one-arm antibody (one Fab)
B25: CE115HA000 D101I one-arm antibody (antibody, human IgG1, kappa, L234A L235A, N297A, name in Kabat numbering)
heavy: B1 heavy with F105A, D110I
chain: B1 chain
light: B1 light
notes: one-arm antibody (one Fab)
B26: CE115HA000 D101G one-arm antibody (antibody, human IgG1, kappa, L234A L235A, N297A, name in Kabat numbering)
heavy: B1 heavy with F105A, D110G
chain: B1 chain
light: B1 light
notes: one-arm antibody (one Fab)
B27: CE115HA000 A99L one-arm antibody (antibody, human IgG1, kappa, L234A L235A, N297A, name in Kabat numbering)
heavy: B1 heavy with F105L
chain: B1 chain
light: B1 light
notes: one-arm antibody (one Fab)
B28: CE115HA000 D101T one-arm antibody (antibody, human IgG1, kappa, L234A L235A, N297A, name in Kabat numbering)
heavy: B1 heavy with F105A, D110T
chain: B1 chain
light: B1 light
notes: one-arm antibody (one Fab)
B29: CE115HA000 E61P one-arm antibody (antibody, human IgG1, kappa, L234A L235A, N297A, name in Kabat numbering)
heavy: B1 heavy with E64P, F105A
chain: B1 chain
light: B1 light
notes: one-arm antibody (one Fab)
B30: CE115HA000 D101P one-arm antibody (antibody, human IgG1, kappa, L234A L235A, N297A, name in Kabat numbering)
heavy: B1 heavy with F105A, D110P
chain: B1 chain
light: B1 light
notes: one-arm antibody (one Fab)
B31: CE115HA000 E61Q one-arm antibody (antibody, human IgG1, kappa, L234A L235A, N297A, name in Kabat numbering)
heavy: B1 heavy with E64Q, F105A
chain: B1 chain
light: B1 light
notes: one-arm antibody (one Fab)
B32: CE115HA000 D73R one-arm antibody (antibody, human IgG1, kappa, L234A L235A, N297A, name in Kabat numbering)
heavy: B1 heavy with D76R, F105A
chain: B1 chain
light: B1 light
notes: one-arm antibody (one Fab)

This is an account of results in US20240270846A1 (published 2024).

Numbering of substitutions follows the chain as printed. In names and notes the source's numbering stands.

T1 sequence (P07766 23-126): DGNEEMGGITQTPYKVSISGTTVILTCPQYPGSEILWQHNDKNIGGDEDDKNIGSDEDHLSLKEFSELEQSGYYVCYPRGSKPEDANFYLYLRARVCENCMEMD

This test concerns the target T1, CD3 epsilon homodimer protein (UniProt P07766 23-126).
T1 construct: Immobilized on Sensor chip CM4 by amine coupling; construct not described; also called CD3 (CD3 epsilon)
The test can be described thus: SPR Biacore T200, CD3 epsilon homodimer on CM4 chip, antibody as analyte.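 Also: Amine-coupled CD3 epsilon homodimer, run at 25 °C in HBS-EP+ buffer, ratio is bound amount of each single-residue H chain variant over that of the parent antibody.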 On the technique in general: SPR reads the build-up and loss of mass on a sensor chip optically.
Consider B1, for which the “ratio of amounts bound (Y/X vs CE115HA000)” value (“ratio of amounts bound” for short) was determined as 1.43.
With B2 the figure was 0.24; with B3, 0.91; with B4, 0.84.
Then B5, with 0.75.
As for B6, the “ratio of amounts bound” value was determined as 1.59.
Then B7, with 1.21.
With B8 the figure was 2.02; with B9, 1.48.
Then B10, with 2.35; and B11, with 0.94; and B12, with 0.62.
As for B13, the “ratio of amounts bound” value amounted to 1.48.
With B14 the figure was 1.43.
With B15 the figure was 0.14; with B16, 0.91.
Then B17, with 1.2; and B18, with 1.43.
B19: the “ratio of amounts bound” value was 0.82.
With B20 the figure was 0.63; with B21, 1.16; with B22, 1.33.
Then B23, with 0.63.
Then B24, with 0.49.
For the molecule B25, the “ratio of amounts bound” value worked out at 1.18.
Regarding B26, the “ratio of amounts bound” value turned out to be 1.38.
As to B27, the “ratio of amounts bound” value was found to be 1.13.
With B28 the figure was 0.79.
With B29 the figure was 1.07; with B30, 0.2.
Consider B31, for which the “ratio of amounts bound” value came to 1.07.
Then B32, with 1.04.
